A short description of the data set: soluble on expression in E. coli; label from the status in PepcDB or PDB records.
Take “MVFGENALVLKHLGSNTKIHFNAFDALAGWKQEGLPPVEVPAAAQWKFRSKPSQQVILDYDYTFTTPYCGSEVVEKDKETVEAKANPKGEATLQWENCEDQIDLAALSLKEPILFYDEVVLYEDELADNGVSLLTVKVRVMPSSWFLLLRFWLRVDGVLMRLRETRMHYRFGEDEAPTVLRENCWREATFQSLSAKGYPVDLAVWSDPSSISQRLPVIKHTTQKLKIPSKV”: the “soluble on expression in E. coli” value is “not soluble”. As for “MVGGGLSTDIAGGRTMTCEFRNSRCISDDDDLIRMKEDDTETQKSEFHRKASGFFLRGSGYCRSIFRVSENLEKDWQACNRRAYMSGLVDYQSMARKAYEKLQELGISRHVTPLFAENVTVPIPGVVFLDCVVNDMTLISRIAGLVARAAFHIKNESPQHGLIEVGAPYNLVDNISYPGLIRFCGKVRNNLGNNYNIQCDIFQMCQFGARSLGSVHNTITVTVAAAAPIPNLVPRGILAPPPPPPPLPLPPVRRRAPKVLNLQKFIDAYQPVQSTGYPIGTPAAAAAVEKESAAPVVPENAEKEVAPKIAQKLELCGTPCKIKAEPEDEDIIILKHIAPNTDGGVKRVGSRNKIGKRSQKLKTRRL”, the entry is “not soluble”; as for “MVGWRIVRIATHPEVQGRGIGSWLLERLYEESVERGYDWLGSGFGINEQLLRFWLRNGFLVLHLSPD”, “not soluble”; as for “MVHYKLSYFPIRGAGEVIRQIFVYAGQSFEDHRISIEEWAAVKPTTPFGQLPLLEVDGKVLPQSHSIARFLARQFGINGKCAWEEAQVNSIADQFKDYRNEVRPYVMVKMGFAEGDLDALSKDVFLPGFKKHYGFIYNFLKTAGSGYLVGDSLTFVDLLIAQHTADILSTDPALLEEFPQFKAHQEKVHSNANIKKWLETRPETQF”, “not soluble”.

For “MVIRVFIASSSGFVAIKKKQQDVVRFLEANKIEFEEVDITMSEEQRQWMYKNVPPEKKPTQGNPLPPQIFNGDRYCGDYDSFFESKESNTVFSFLGLK”, the “soluble on expression in E. coli” value is “soluble”.

For “MVKAGKKVKGASKVRENETEEEKKIRLEMEALAADEAERKAQEAARVALRERQLREQRYAHLNGIKIHNQWRKIMRMAKVEELRREIEILSQNHEREVDRKDAIMQMLDRDLEEAEEQYSLAVRSHMLVVDNLLDLQYQRMRALEAEFAADLKALEDEFETERTEIVNAHTRQRKDMGDMIAAMEGEFADAEAELRQEYEAQREEIKNRNSEEYNVLKIQLEGIIEELEKSFELAHRAYLESTEHRTNTFRTLTKDDAKAALKIERQMRKLVRLQEALQHWRTKIATNGREWEERNRALRNEKEIMARHYAKLKSSMDAFRAGQAERLKQLSLASSGAMETLRGKLAVAENVLKLAELARKYETEQEKVLPFWNPAQAVPSGEQGDEEAAAQAEAEAAALEPSVAELGELGLRASMPEDSSKEAPGPSKSSAGPGKPKFSSYGLDPSSGSEVDEWDYLNCFFRRYNKALLDKTAIDKEKSRLERENADLRSILKQYLDGISVNDDVLNNPVNPLLVVNNRLQITLTERNKARAAAMAQRAAAATGAGLSVTGQGAGGGGQKQLVEVQVVSRVS”, the “soluble on expression in E. coli” value is on record as “not soluble”. For “MVKATAIDMSLSDIISTNRKNKKVVKKPIKKSAGGIRKRGNASNVGTPRRQSGGTSRGGGRMGNTVRRSAGGSSNDNKQVRINISNLAETVISSDLQELFGAFNLHKVSVNFNENGGAAGTGDITLKKYDADRLIQKFAGVALDGKVMHFAVIESSNFARKPEIRGTPNRRQSSGKPINRKVANPPRRQNAAKPPVKKGKKPAREQKPPKTAEQLDAELDAYMSRSA”, the “soluble on expression in E. coli” value is listed as “not soluble”. In the case of “MVKETEYYDILGIKPEATPTEIKKAYRRKAMETHPDKHPDDPDAQAKFQAVGEAYQVLSDPGLRSKYDQFGKEDAVPQQGFEDASEYFT”, the “soluble on expression in E. coli” value is given as “not soluble”. In the case of “MVKIHPDLTTSGAGEETSSPYLTTEQESFTIWMKSLVFNTNGCTVFDSKGNIIYRVDNYNSKSCREVYLMDLSGHVLFTLRRQKFGLFKTWEGYRSSSATVESTTKLEYFRVKNNVFQVPNKDSSSSYRVNAGSCRNDEQYCYKMVTRGSSLAIEDNCGKLLAEVKRKQSINGLKLGDDVLTMMVESQVDHSFIIGLVLAHSLINCIL”, the “soluble on expression in E. coli” value is on record as “soluble”. As for “MVKKVKGRRYEGSIEQRSKNSWRMRVTVGYDYKGTPIRADRTTRTKNERERERELRNFITELEQNGYTAPARMTFKAFVENEYMPKHAQNNLEVKTWTEYYKSIVARAYPAFGGVQMDKITTLHIVNLVAKLQKPGARLDVKPTDSDEKKNKPLSPRSIRNIYFAINSVFETAVEWKVIPINPAEGVRLPKTTKRPPTIYTPAEIELLNAALVKEPLRLQVMIYIALISGCREAELAALEVKHVNLIEDELTFEQTLVAKAGEGLLLKESTKNDVAGIVSIPAWLTNLIETYISNEVLDLKTEGKWANHKFLFADMEGKPIRPDSIYQRWKRFLERHNLPVIRFHDLRHTSATLLLNKGRDIKIIQERLRHKSSVTTSNIYAHVLKDTHKDAASDFENPF”, the entry is “not soluble”; as for “MVKLIHTLADHGDDVNCCAFSFSLLATCSLDKTIRLYSLRDFTELPHSPLKFHTYAVHCCCFSPSGHILASCSTDGTTVLWNTENGQMLAVMEQPSGSPVRVCQFSPDSTCLASGAADGTVVLWNAQSYKLYRCGSVKDGSLAACAFSPNGSFFVTGSSCGDLTVWDDKMRCLHSEKAHDLGITCCDFSSQPVSDGEQGLQFFRLASCGQDCQVKIWIVSFTDILARRTEHQLKQFTEDWSEEDVSTWLCAQDLKDLVGIFKMNNIDGKELLNLTKESLADDLKIESLGLRSKVLRKIEELRTKVKSLSSGIPDEFICPITRELMKDPVIASDGYSYEKEAMENWISKKKRTSPMTNLVLPSAVLTPNRTLKMAINRWLETHQK”, “soluble”. In the case of “MVKLLTINSHSWMEEDPQKKLEILGKTILENDYDVICVQEVNQLLHSEPAKDLPNYCQVAGTPAIHKDNYALQLVTFLLEQERVYYWSWAYNHIGYDRFQEGVAILSKTPLVSQGILISDVDDEHDYHTRRALLGKTKIDQEDIAIVSLHMSWWNKGFQGEWNKLERVLSNLKLPLLLMGDFNNPYENEGYQAILKSSLKLQDSHQSAKITYGKATIQKEIDGWQGNQEALKVDYVFLSSDWQVEKSEVIFDGKHYPMISDHCGLACQANLNK”, the “soluble on expression in E. coli” value is “not soluble”.

With “MVKNQFPLVADGIAISDPAKQMALYENEDLITNIRGYYQDKEYDDIARNEEFTAKATSRQTPSSKRFCSNDEKHHYVKEARQKAKQDLKEKRQAYLAKEMAYVPKQVSKKQQPADSSPSQKQATTEMSRFTKKLHQDNYILAELPKEYKEPKNLPQQGTTKKNNYDFLKSSQIYNNKEMRQQREKTIAQELNLSRFEDLP”, the “soluble on expression in E. coli” value is recorded as “not soluble”. On to “MVKQIESKTAFQEALDAAGDKLVVVDFSATWCGPCKMIKPFFHSLSEKYSNVIFLEVDVDDAQDVAPKYGIRGIPTLLLFKNGEVAATKVGALSKGQLKEFLDANLV”, for which the “soluble on expression in E. coli” value was “soluble”.

Turning to “MVKVIASSVRKGNVLDVDGKLYVVLTAQNFHPGKGTPVTQVDMRRIVDGTKVSERWRTTEQVERAFVEDLNFQFLYEDGEGFHFMNPENYDQVVVDVETMGDQKAYLQEGMTCVLSIHEGNPLAVELPRHVTLEIVETEPVVKGQTASSSYKPAILSNGIRTMVPPHIDAGIRVVIATEDNSYVERAKN”, the “soluble on expression in E. coli” value was “not soluble”. As for “MVLDNLGKALANTLKKIARASSVDEALIKELVRDIQRALIQADVNVRLVLQLTREIQRRALEEKPPAGISKKEHIIKIVYEELTKFLGTEAKPIEIKEKPTILLMVGIQGSGKTTTVAKLARYFQKRGYKVGVVCSDTWRPGAYHQLRQLLDRYHIEVFGNPQEKDAIKLAKEGVDYFKSKGVDIIIVDTAGRHKEDKALIEEMKQISNVIHPHEVILVIDGTIGQQAYNQALAFKEATPIGSIIVTKLDGSAKGGGALSAVAATGAPIKFIGTGEKIDDIEPFDPPRFVSRLLGLGDIQGLLEKFKELEKEVEIKEEDIERFLRGKFTLKDMYAQLEAMRKMGPLKQILRMIPGLGYSLPDDVISIGEERLKKFKVIMDSMTEEELLNPEIINYSRIKRIARGSGTSTKDVKELLDQYRQMKKLFKSMNKRQLSRLARRFGM”, the entry is “soluble”. As for “MVLNIKRASSLDGATINVQDVLKPFDHQVGGHTPFTSLPNGHLLKPCEEREILFYQKMPKILKSIAPLCCSTIQGSSVSTLDDSCSNCRHHQLENVVIPESIEGSPILNKRKLSKNFIVLSDLTYRMKSPRILDLKLGTRQHGDQATVSKIACMTAKCQATTSATLGIRLCGMKIPFLEQNSQNFAPNFAPNSAAPNFAPKSEISINKYMGRSMDKTDLFLAVKQFFDVPEAVLEEVERRLLGIRDVLCGADGVRLFGASLLIVIESNFSDSQLPIDNLVRIKVVDFANATFGGLQGDSFYDGRDDGSILGLETLLEIVKGKN”, the “soluble on expression in E. coli” value is recorded as “not soluble”. As for “MVLPGNCSTSAALCMQFLTQLASVAIDQAYQPPQQPAYNPHEKLFVSYRSVPPPGSSPSSAAVPIRFSSYSSVGSNIRGLNSPTLHPGSIEPPLTPGNYRLYSMRFCPYAQRVLIYLAKKNIPVEVVNVNPDRSPNWYLPKSPIGRVPALEINGKVVWESNVIVEYLDELFPTNTILPRDAYEKAHQKILVERLSPIMNALFEFYGSSNNPQAQRQNDMNVHSALRNSENLLRDTFYGGRQPGYADYLMWPFLERLQLLTMSPNSQFRYFPGLHYPKIGAYIARMQNQPEVLGFCKHDFFLKKTGEKIW”, the entry is “not soluble”. As for “MVLTDEQRQAIAKKREEAIRRAAAYREREMQAAANATASTSSAAPPAPPKPVIPVMFSQNRQNFQPMKPTMNNSTKQSTINNYIKQVQKPEPTSLIKPTIGVKLKLDIGDRIKIEFYPFHSAVIDLIKQVPSRNYDPAKRSWTVASSDHITISNILKNATAVKVELEPLPQNIIGLTNFKPKAAPSDLNTVMDPSLIERLFPYQKEGVIFALERDGRILLADEMGLGKSVQALTIARYYKADWPLLIVCPASVKGAWKKQLNTFFPIIHRIFIVDKSSDPLPDVCTSNTVAIMSYEQMVLKHDILKKEKYRTIIFDESHMLKDGKARRTKVATDLSKVALHVILLSGTPALSRPSELFTQIRLIDHKLFTNFHEFAIRYCDGKQGRFCFEAKGCTNSEELAAIMFKRLMIRRLKADVLKDLPEKRREVVYVSGPTIDARMDDLQKARADYEKVNSMERKHESLLEFYSLTGIVKAAAVCEHILENYFYPDAPPRKVLIFAHHQIVLDTIQVEVNKRKLGSIRIDGKTPSHRRTALCDSFQTDDNIRVAVLSITAAGVGITLTAASVVVFAEIHFNPGYLVQAEDRAHRVGQKDSVFVQYLIAKKTADDVMWNMVQQKLDVLGQVSLSSDTFRTADKMHLRFNDAAQPGIAEYLKKTPDTTIDEWEDPVEEKEDDDLEIICDSPAPKRIKN”, the entry is “not soluble”; as for “MVNKDVTKVCIGKIEELPEQLGKTVYIEDKELAVFKLSDGSIRAIENRCPHKGGVLAEGIVSGQYVFCPMHDWKISLEDGIVQEPDHGCVKTYETLIEGEHVYLVY”, “not soluble”; as for “MVNNSKTILITGCSHGGIGYATAVHLKNLGHRVFASARQQKDVEALSQEGFETYLIDVTNYEYIDNALADILNKTGGSLDVIFNNAGYGQAGALEDIDTKFLKQQFETNVFGLHNLTYKALKIMRKQGYGKIIQHSSVLGLVAMKYRGAYNASKYAIEGLTDTMRLELRDSNIFITSLNTGPITSKFRENSIKTITNVNYDSSVHKQQYEKILARQHKKVPFNEPAISVAKVVEKIINCDKPKPRYYITKATWIMASLKRILPTNILDNFLNRY”, “not soluble”.

Values taken from the DeepSol protein solubility set.
